In paper PMC7615752, “The histone chaperone SPT2 regulates chromatin structure and function in Metazoa”:

Target: T1, HsSPT2 WT (Homo sapiens, UniProt Q68D10 1-685)
T1 sequence: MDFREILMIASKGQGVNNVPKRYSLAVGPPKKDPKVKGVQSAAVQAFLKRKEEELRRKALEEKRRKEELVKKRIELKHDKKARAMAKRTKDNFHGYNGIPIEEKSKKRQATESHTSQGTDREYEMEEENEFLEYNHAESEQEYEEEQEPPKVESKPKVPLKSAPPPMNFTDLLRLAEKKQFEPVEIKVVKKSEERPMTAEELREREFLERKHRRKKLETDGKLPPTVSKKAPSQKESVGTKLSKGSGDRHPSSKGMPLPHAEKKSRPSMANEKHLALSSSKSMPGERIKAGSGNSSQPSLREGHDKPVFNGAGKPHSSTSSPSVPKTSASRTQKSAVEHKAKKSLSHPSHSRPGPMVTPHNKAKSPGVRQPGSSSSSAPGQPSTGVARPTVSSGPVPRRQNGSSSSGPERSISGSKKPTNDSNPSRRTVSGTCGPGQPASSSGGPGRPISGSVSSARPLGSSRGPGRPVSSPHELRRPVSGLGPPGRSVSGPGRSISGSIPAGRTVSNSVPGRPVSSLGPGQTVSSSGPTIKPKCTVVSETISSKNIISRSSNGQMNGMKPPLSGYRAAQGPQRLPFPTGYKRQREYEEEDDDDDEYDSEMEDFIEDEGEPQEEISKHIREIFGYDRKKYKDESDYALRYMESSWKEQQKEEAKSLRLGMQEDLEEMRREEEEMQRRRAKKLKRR
Assay: EMSA; 1 mM EDTA; 10 nM DNA; 25 mM Tris-HCl pH 8.0, 55 mM NaCl, 1 mM EDTA, 1 mM DTT, 0.1 mg/ml BSA, 1% glycerol, 37 C 15 min; native 8% PAGE
Conditions: protein: recombinant; tags: His6; label: 5'-32P; four-way junction of 4 x 40 nt strands, each arm 20 bp

B1: synthetic cruciform DNA (four-way Holliday junction J3b/J3h/J3r/J3x(40)) (structured_DNA)
DNA 1: AGGGATCCGTCCTAGCAAGGGGCTGCTACCGGAAGCTTAC
DNA 2: GTAAGCTTCCGGTAGCAGCCTGAGCGGTGGTTGAATTCAC
DNA 3: GTGAATTCAACCACCGCTCAACTCAACTGCAGTCTAGAAC
DNA 4: GTTCTAGACTGCAGTTGAGTCCTTGCTAGGACGGATCCCT
- binding result: binds
